Assay: soluble on expression in E. coli; label from the status in PepcDB or PDB records

| Sequence | soluble on expression in E. coli |
| --- | --- |
| AAEKTGKCRVVTTTGTADWSVRESFNNYLEGPIANGAAYKYHGGIEVRDGVETTGTKSAREFTWPVLGSEEGAVKLGGGVHWTGHNHYSGDDESQAPDNFILDLDFSNPTVKFDGNEGTLLVDFKSREFVDTKTVADFLTGTQAELATITFDEPIDLTQENVTVTGQTKLTATGVDVMGTFYPEGEALAPITLNLTN | not soluble |
| AAIRHITTGTYIARIREEYQQTEVKPELQPMKEALARMTDRAEALIAFVTEQKDQELLDFQARRLVEMTAHAVFGHLLMLAANDDDSFRQSAEVYLRYGQAEQEKIDSYVRAFRPEELTFYSRCSRPE | soluble |
| AATTVNGGTVHFKGEVVNAACAVDAGSVDQTVQLGQVRTASLAQEGATSSAVGFNIQLNDCDTNVASKAAVAFLGTAIDAGHTNVLALQSSAAGSATNVGVQILDRTGAALTLDGATFSSETTLNNGTNTIPFQARYFATGAATPGAANADATFKVQYQGGGGGGAATTVNGGTVHFKGEVVNA | soluble |
| ACDYTCGSACYSSSDVSTAQAAGYKLHEDGETVGSNSYPHKYNNYEGFDFSVSSPYYEWPILSSGDVYSGGSPGADRVVFNENNQLAGVITHTGASGNNFVECT | soluble |
| ADGNNIKAPIETAVKPPHRTEDNIRDEARRNRSNAVNPFSAKYVPFNAAPGSTESYSLDEIVYRSRSGGLLDVEHDMEALKRFDGAYWRDLFDSRVGKSTWPYGSGVWSKKEWVLPEIDDDDIVSAFEGNSNLFWAERFGKQFLGMNDLWVKHCGISHTGSFKDLGMTVLVSQVNRLRKMKRPVVGVGCASTGDTSAALSAYCASAGIPSIVFLPANKISMAQLVQPIANGAFVLSIDTDFDGCMKLIREITAELPIYLANSLNSLRLEGQKTAAIEILQQFDWQVPDWVIVPGGNLGNIYAFYKGFKMCQELGLVDRIPRMVCAQAANANPLYLHYKSGWKDFKPMTASTTFASAIQIGDPVSIDRAVYALKKCNGIVEEATEEELMDAMAQADSTGMFICPHTGVALTALFKLRNQGVIAPTDRTVVVSTAHGLKFTQSKIDYHSNAIPDMACRFSNPPVDVKADFGAVMDVLKSYLGSNTLTS | soluble |
| ADTFNLAKDIHSRILSIDTHTDTPLWFKNGYSVGLRKDNMVSIPKMEEGKLDAQFLAAFIWQGKRDDASSQKAVESTTRLIQSIYDEVEQYKDFCGIALTEEDLVRLKNEGKKAFFIGIENGYAIGKDLKNIKKYKQMGVNYITLCHSYDNDICHSSTHTEDATQGLTQFGREVVKEMNRLGIMIDISHASEGTFWDVIKYSAQPIIASHSSSKALCDHDRNLTDEQLRALAKNGGVAQLCLLDAYINKKTKAASICDAVEHLDHMIKVAGIDHVGIGTDFDGGGGLQGCRGDNDLINLTIKMIEKGYTEEDLRKIWGGNLLRVMKQVQEAPLLSSKKRR | not soluble |
| ADTPGEATPPPRKKKDIRDYNDADMARLLEQWEKDDDIEEGDLPEHKRPSAPIDFSKLDPGKPESILKMTKKGKTLMMFVTVSGNPTEKETEEITSLWQGSLFNANYDVQRFIVGSDRAIFMLRDGSYAWEIKDFLVSQDRCAEVTLEGQMYPGKGGGSKEKNKTKPEKAKKKEGDPKPRASKEDNRAGSRREDL | soluble |
| AGIKVFGHPASIATRRVLIALHEKNLDFELVHVELKDGEHKKEPFLSRNPFGQVPAFEDGDLKLFESRAITQYIAHRYENQGTNLLQTDSKNISQYAIMAIGMQVEDHQFDPVASKLAFEQIFKSIYGLTTDEAVVAEEEAKLAKVLDVYEARLKEFKYLAGETFTLTDLHHIPAIQYLLGTPTKKLFTERPRVNEWVAEITKRPASEKVQ | soluble |
| AGSNGAQEKKYIVGFKQTMSTMSAAKKKDVISEKGGKVQKQFKYVDAASATLNEKAVKELKKDPSVAYVEEDHVAHAY | soluble |
| AHHHHHHGSELFFITSNDGKVREAKKFLEPLGINVIKKPLEYPEIQADTLEDVVVFGLNWLKDKVDKPFIIEDSGLFIEALNGFPGVYSAYVYKTIGLDGILKLMEGIENRKAYFKSVIGFYDGEIHLFVGEVRGRISNEKRGLHGFGYDPIFVPDGFDKTFAEMSTEEKNSVSHRGKALKEFYRWMKENLKK | soluble |
| AHHHHHHGSGVEEHKKEAPKTFKFGVITVSDKGAKGEREDKSGPLIIEELSKLGEHVYYKIVPDDKIEVLIALFEAIKSGADVVVTTGGTGITRRDITIESIKPLFDKELSFGEVFRAKSYEEVGYATVLTRATAGIIRGQERIVVVFSLPGSVNAVKTGLEIIKSEVFHILKHARE | soluble |
| AHHHHHHGSGVPIGEIIPRKEIELENLYGKKIAIDALNAIYQFLSTIRQKDGTPLMDSKGRITSHLSGLFYRTINLMEAGIKPVYVFDGEPPEFKKKELEKRREAREEAEEKWREALEKGEIEEARKYAQRATRVNEMLIEDAKKLLELMGIPIVQAPSEGEAQAAYMAAKGSVYASASQDYDSLLFGAPRLVRNLTITGKRKLPGKNVYVEIKPELIILEEVLKELKLTREKLIELAILVGTDYNPGGIKGIGLKKALEIVRHSKDPLAKFQKQSDVDLYAIKEFFLNPPVTDNYNLVWRDPDEEGILKFLCDEHDFSEERVKNGLERLKKAIKSGKQSTLESWFKR | soluble |
| AHHHHHHGSIDDLVERMRKGDRRAVARLITLVENDEKKAREIIKRIYPLTGNAYIVGITGPPGSGKSTLVDKLVKEARKEGLIVGVIAVDPTSPFTGGALLGDRIRMQDHATDPGVFIRSMATRGSLGGLAKATNDAIKILDAYGCDIIFVETVGVGQVEVDIVKTADTVVLVTVPGLGDDIQAIKAGLMEIADIFVLNKADREGADATYFELSLTLDLESEKWEKLGWRPPIVETVATLGKGIKELWEQIKRHREFLEKSGKLEEKKRLRVEEEIKTIVSDMIAKKVEVSIKAGNLEDILEKVMKKELDPYSAASLIMEKIIGGGKSV | soluble |
| AHHHHHHGSIRASKRALSVEYAIRDVVLPARELEKKGIKVIRLNIGDPVKFDFQPPEHMKEAYCKAIKEGHNYYGDSEGLPELRKAIVEREKRKNGVDITPDDVRVTAAVTEALQLIFGALLDPGDEILVPGPSYPPYTGLVKFYGGKPVEYRTIEEEDWQPDIDDIRKKITDRTKAIAVINPNNPTGALYDKKTLEEILNIAGEYEIPVISDEIYDLMTYEGEHISPGSLTKDVPVIVMNGLSKVYFATGWRLGYMYFVDPENKLSEVREAIDRLARIRLCPNTPAQFAAIAGLTGPMDYLKEYMKKLKERRDYIYKRLNEIPGISTTKPQGAFYIFPKIEVGPWKNDKEFVLDVLHNAHVLFVHGSGFGEYGAGHFRAVFLPPIEILEEAMDRFEKFMKERLKE | soluble |
| AHHHHHHGSLHLKEKLKGTTTVGLVCKEGVVLAADTRASLGNIIYAKNVTKIHKIDEHLAIAGAGDVGDILNLVRLLKAEANLYKSTVGKEMSVKALATLLANILNGSKYFPYLGWFLVGGYDEKPRLFSVDMVGGITEDNYAAAGSGMEFAYSILDSEYREEMSVNDGIKLAVKAINVAIKRDVFTGDGLLVVTITKDGYKEYRGAELEKMLK | not soluble |
| AHHHHHHGSNRKLDEFLGSNDPPATKEENQKVKKKQRLRATNLDEFLPEDHINFFKNLRIGSKKIARKKIEEL | not soluble |
| AHHHHHHGSPKIEPFEKYTERYEEWFERNKFAYLSELNALKSLLPTRECVEVGIGSGRFAAPLGIKMGVEPSKKMAEIARKRGIRVIEGVAENLPFEDNSLDCILMVTTICFVDDPEKAIKEAYRVLKPGGYIVIGFVDKESLIGREYEKRKDKSVFYRDARFFSAREIMELLERNGFKIDGVVQTLFKKLDEIRDVEPVEEGYGRGSFVVIRAKKVV | soluble |
| AHHHHHHGSRVLVTTWGNPFQWEPITYEYRGIKVKSRNTLPILVKTLEPERILILVADTMANYYDSGKNKPEIEEKSFSSYSEVVEDTKERILWHIKEEVIEELREEDPELAKKIENMLKDERITIEVLPGVGVFGNITVEGEMLDFYYYATYKLAEWLPVQNNLEVYLDLTHGINFMPTFTYRALRNLLGLLAYLYNVKFEIVNSEPYPLGVSQEIREDTILHIREIGEGVVRPRPQYSPVEGKLYWNAFISSVANGFPLVFASFYPNIRDVEDYLNKKLEEFLVGIEVGEREDGKPYVKREKALDRSFKNASKLYYALRVFNTKFQNYPKKEVPIEEIMEISKIFESLPRIGIILERQVEWLRNLVYGRLWYENGEQKIKKGLLEIIKDKKDKRKEAEALKKGKTISLAEAAKLTRIFSPSGERIETIESPNVVRNFIAHSGFEYNIVYVKYDRLSDRLYFFYKDKEKAANLAYEALLYRGEKE | soluble |
| AHHHHHHGSVIEEEGKVEILPRDVDLSKYVDSVEVDVDNFGDYHELRKELREKKMRFIDANVFIYAILKPKRELNEKELKIKRVSKEIFNRINGGEEVVTTVVHLSEVANVLEDAANLSFAISFLKDVLIKGNVIVEEVSDRDYMESVLLAEEKGVSINDALAYILMKRKGIEEIYTFDRHFENLDVRIVNS | soluble |
| AHHHHHHGSVKIGVIGLQGDVSEHIEATKRALERLGIEGSVIWVKRPEQLNQIDGVIIPGGESTTISRLMQRTGLFDPLKKMIEDGLPAMGTCAGLIMLAKEVIGATPEQKFLEVLDVKVNRNAYGRQVDSFEAPVKLAFDDKPFIGVFIRAPRIVELLSDKVKPLAWLEDRVVGVEQGNVIGLEFHPELTDDTRIHEYFLKKIV | soluble |
| AHHHHHHGSVNIMDEIIVVTTPTIPGYKIIEVKGIARGGIVMATHLGRDILALLRNIKGGEVKEYTQMMAEAREEALRRMIEHAKKLGANAVVNFRFATSNVGGGMAEVYAYGTAVVVEREK | not soluble |
| AIAADKEAAFDDAVEERVINEEYKIWKKNTPFLYDLVMTHALEWPSLTAQWLPDVTRPDGKDFSIHRLVLGTHTSDEQNHLVIASVQLPNDDAQFDASHYDSEKGEFGGFGSVSGKIEIEIKINHEGEVNRARYMPQNPCIIATKTPSCDVLVFDYTKHPSKPDPSGECNPDLRLRGHQKEGYGLSWNPNLSGNLLSASDDHTICLWDISAVPKEGKVVDAKTIFTGHTAVVEDVSWHLLHESLFGSVADDQKLMIWDTRSNNTSKPSHSVDAHTAEVNCLSFNPYSEFILATGSADKTVALWDLRNLKLKLHSFESHKDEIFQVQWSPHNETILASSGTDRRLNVWDLSKIGEEQSPEDAEDGPPELLFIHGGHTAKISDFSWNPNEPWVICSVSEDNIMQVWQMAENIYNDEDTEGSVDPEGQGS | soluble |
| AIAAQKISEAHEHIAKAEKYLKTSFMKWKPDYDSAASEYAKAAVAFKNAKQLEQAKDAYLQEAEAHANNRSLFHAAKAFEQAGMMLKDLQRMPEAVQYIEKASVMYVENGTPDTAAMALDRAGKLMEPLDLSKAVHLYQQAAAVFENEERLRQAAELIGKASRLLVRQQKFDEAAASLQKEKSMYKEMENYPTCYKKCIAQVLVQLHRADYVAAQKCVRESYSIPGFSGSEDCAALEDLLQAYDEQDEEQLLRVCRSPLVTYMDNDYAKLAISLKVPGGGGGKKKPSASASAQPQEEEDDEYAGGLC | soluble |
| AIAETEIHVPVGSPTIRKFQIFVDEHNVTEGAMKLIKELRPGWDPNLIRTKLFTDGTTNKLVGCYVEDCVEDVVLVRVYGNKTELIVDRDNELKSFQVLHANGCAPRLYCTFQNGICYEFMQGRALDTQDVRDPVLLRLIAREMARIHAIHAHNGCIPKPNLWIKMRKYFSLVATEFTEQASNIRIQQEVPSQEVLEQEMMWMKEHLSQLGSPVVLCHNDLLCKNIIHNAKEGHVRFIDYEYSSYNYQAFDIGNHFNEFAGMSEPDYNLYPSREMQLDWLQTYLQAYKLFTKKGEDVSERELETLYVQVNKFALASHFFWGFWALIQAKYSTIEFDFLGYAVLRFNQYFKTKPAVMALEIPK | soluble |

— the DeepSol protein solubility set
